Experiments:
[1] = target: human MET, cell-surface expressed (human, UniProt P08581 25-1390); test: cell-based or functional assay
[2] = target: MET without the 47 amino acids encoded by exon 14 (H596 cells) (human) (UniProt P08581); test: cell-based or functional assay
dog MET on MDCK cells = target: T1, dog MET on MDCK cells (dog, UniProt Q75ZY9 25-1382); test: FACS, serial dilutions of Alexa647-labelled antibody on MDCK cells
T1 construct: whole, on cells; also called Canine (MDCK)
Procedure: (§1) To measure antibody binding affinities against cell surface receptor, antibodies were labeled with the Alexa647 antibody labeling kit and purified per manufacturer's instruction (Invitrogen). A549 (human), 4MBr5 (monkey), MDCK (canine), and MS1 (murine) cells were resuspended in pre-chilled FACS buffer, incubated on ice for 1 hr and distributed to 96-well plates at 10⁵ cell/well. Serial dilutions of labeled antibodies were added to each well and incubated on ice for 4 hrs to allow antibody binding to reach equilibrium. Mean fluorescence intensity was analyzed using a FACS reader (ACCURI™-C6; BD Biosciences), and apparent binding affinities were determined using […] PRISM® software.

mouse MET on MS1 cells = target: T2, mouse MET on MS1 cells (mouse, UniProt P16056 25-1379); test: FACS, serial dilutions of Alexa647-labelled antibody on MS1 cells
T2 construct: whole, on cells; also called Murine (MS1)
T2 sequence (P16056 25-1379): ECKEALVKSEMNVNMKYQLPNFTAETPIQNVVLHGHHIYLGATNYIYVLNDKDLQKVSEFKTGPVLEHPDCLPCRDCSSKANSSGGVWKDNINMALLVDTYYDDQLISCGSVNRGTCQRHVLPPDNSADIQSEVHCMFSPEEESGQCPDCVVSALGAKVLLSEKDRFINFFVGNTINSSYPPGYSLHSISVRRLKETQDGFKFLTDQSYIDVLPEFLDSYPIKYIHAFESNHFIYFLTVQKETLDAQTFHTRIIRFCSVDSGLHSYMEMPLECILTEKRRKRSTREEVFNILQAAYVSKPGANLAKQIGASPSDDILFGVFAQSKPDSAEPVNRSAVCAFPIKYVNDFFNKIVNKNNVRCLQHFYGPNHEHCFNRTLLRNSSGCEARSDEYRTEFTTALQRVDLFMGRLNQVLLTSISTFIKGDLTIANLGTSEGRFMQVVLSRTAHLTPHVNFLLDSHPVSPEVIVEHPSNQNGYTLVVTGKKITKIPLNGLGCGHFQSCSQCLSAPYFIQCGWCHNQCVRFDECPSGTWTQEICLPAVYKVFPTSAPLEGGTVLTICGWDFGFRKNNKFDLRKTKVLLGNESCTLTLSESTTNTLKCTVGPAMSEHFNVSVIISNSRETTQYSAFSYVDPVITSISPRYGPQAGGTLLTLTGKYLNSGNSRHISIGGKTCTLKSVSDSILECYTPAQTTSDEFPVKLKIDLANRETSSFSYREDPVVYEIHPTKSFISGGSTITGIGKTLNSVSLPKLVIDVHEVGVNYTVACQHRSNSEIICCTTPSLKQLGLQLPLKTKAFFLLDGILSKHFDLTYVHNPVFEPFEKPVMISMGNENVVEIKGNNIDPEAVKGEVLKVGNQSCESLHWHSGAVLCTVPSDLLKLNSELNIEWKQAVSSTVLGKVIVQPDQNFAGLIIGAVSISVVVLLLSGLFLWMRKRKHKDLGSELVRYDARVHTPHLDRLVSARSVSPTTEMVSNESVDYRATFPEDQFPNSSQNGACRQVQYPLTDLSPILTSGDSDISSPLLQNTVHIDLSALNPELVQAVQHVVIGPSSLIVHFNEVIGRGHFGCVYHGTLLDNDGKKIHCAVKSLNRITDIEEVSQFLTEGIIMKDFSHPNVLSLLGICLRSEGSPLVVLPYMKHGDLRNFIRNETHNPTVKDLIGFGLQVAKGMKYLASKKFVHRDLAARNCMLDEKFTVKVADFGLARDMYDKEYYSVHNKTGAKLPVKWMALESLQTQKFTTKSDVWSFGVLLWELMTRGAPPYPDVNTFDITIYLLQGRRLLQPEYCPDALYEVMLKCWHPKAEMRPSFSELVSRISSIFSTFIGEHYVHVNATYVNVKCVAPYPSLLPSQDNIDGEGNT
Procedure: as §1

hMET R331K/L337P = target: T3, hMET R331K/L337P (human, UniProt P08581 25-1390); test: flow cytometry on transfected CHO cells (ND = not detectable)
T3 construct: whole, on cells; also called human to murine
Procedure: (§2) This surface-exposed cluster in the human MET (hMET) protein was replaced with corresponding amino acids from canine or murine MET. hMET mutants were then transfected into CHO cells and antibody binding affinity was measured by flow cytometry.

[3] = target: T4, hMET Q328N/R331K/L337P/N338S (human, UniProt P08581 25-1390); test: as above
T4 construct: whole, on cells; also called human to murine
Procedure: as §2

hMET Q328H/R331K/S336N = target: T5, hMET Q328H/R331K/S336N (human, UniProt P08581 25-1390); test: as above
T5 construct: whole, on cells; also called human to canine
Procedure: as §2

hMET R331K/S336N = target: T6, hMET R331K/S336N (human, UniProt P08581 25-1390); test: as above
T6 construct: whole, on cells; also called human to canine
Procedure: as §2

murine MET-ECD = target: T7, murine MET-ECD (murine, UniProt P16056 25-931); test: ELISA on coated murine MET-ECD
T7 construct: extracellular domain; also called mouse cMET ECD
T7 sequence (P16056 25-931): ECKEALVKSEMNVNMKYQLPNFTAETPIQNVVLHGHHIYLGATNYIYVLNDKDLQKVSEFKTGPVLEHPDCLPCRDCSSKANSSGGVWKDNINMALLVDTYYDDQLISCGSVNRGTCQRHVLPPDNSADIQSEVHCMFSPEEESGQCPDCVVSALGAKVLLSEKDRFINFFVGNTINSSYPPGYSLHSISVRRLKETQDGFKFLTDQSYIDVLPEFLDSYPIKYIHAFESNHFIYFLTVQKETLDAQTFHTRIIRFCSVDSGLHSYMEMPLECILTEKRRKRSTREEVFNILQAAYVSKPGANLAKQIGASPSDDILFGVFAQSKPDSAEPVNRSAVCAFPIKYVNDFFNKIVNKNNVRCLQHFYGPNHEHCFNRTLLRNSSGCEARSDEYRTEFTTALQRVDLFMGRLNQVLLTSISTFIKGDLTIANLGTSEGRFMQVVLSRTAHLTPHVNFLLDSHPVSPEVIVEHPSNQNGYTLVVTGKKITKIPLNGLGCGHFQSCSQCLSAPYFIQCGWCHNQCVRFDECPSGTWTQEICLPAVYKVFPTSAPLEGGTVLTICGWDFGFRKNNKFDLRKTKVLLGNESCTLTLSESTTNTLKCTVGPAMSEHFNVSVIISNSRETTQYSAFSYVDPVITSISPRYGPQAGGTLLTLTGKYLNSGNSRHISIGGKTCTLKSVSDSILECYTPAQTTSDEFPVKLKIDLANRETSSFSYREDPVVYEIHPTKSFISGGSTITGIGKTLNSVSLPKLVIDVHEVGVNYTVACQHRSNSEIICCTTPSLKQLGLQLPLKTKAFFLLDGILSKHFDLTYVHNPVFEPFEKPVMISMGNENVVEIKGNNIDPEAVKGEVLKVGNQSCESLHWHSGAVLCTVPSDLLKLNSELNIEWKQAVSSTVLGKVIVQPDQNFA
Procedure: To measure antibody binding by ELISA, 10 μg of human, murine or chimeric MET-ECD was coated onto 96-well plates (Costar). Serial dilutions of antibodies were added to the plates and incubated at room temperature for 1 hr prior to the addition of HRP-conjugated secondary antibody. Luminescence was measured with BioTek SYNERGY™ HT plate reader, and binding EC₅₀ values were determined using […] PRISM® software.

T1 sequence (Q75ZY9 25-1382): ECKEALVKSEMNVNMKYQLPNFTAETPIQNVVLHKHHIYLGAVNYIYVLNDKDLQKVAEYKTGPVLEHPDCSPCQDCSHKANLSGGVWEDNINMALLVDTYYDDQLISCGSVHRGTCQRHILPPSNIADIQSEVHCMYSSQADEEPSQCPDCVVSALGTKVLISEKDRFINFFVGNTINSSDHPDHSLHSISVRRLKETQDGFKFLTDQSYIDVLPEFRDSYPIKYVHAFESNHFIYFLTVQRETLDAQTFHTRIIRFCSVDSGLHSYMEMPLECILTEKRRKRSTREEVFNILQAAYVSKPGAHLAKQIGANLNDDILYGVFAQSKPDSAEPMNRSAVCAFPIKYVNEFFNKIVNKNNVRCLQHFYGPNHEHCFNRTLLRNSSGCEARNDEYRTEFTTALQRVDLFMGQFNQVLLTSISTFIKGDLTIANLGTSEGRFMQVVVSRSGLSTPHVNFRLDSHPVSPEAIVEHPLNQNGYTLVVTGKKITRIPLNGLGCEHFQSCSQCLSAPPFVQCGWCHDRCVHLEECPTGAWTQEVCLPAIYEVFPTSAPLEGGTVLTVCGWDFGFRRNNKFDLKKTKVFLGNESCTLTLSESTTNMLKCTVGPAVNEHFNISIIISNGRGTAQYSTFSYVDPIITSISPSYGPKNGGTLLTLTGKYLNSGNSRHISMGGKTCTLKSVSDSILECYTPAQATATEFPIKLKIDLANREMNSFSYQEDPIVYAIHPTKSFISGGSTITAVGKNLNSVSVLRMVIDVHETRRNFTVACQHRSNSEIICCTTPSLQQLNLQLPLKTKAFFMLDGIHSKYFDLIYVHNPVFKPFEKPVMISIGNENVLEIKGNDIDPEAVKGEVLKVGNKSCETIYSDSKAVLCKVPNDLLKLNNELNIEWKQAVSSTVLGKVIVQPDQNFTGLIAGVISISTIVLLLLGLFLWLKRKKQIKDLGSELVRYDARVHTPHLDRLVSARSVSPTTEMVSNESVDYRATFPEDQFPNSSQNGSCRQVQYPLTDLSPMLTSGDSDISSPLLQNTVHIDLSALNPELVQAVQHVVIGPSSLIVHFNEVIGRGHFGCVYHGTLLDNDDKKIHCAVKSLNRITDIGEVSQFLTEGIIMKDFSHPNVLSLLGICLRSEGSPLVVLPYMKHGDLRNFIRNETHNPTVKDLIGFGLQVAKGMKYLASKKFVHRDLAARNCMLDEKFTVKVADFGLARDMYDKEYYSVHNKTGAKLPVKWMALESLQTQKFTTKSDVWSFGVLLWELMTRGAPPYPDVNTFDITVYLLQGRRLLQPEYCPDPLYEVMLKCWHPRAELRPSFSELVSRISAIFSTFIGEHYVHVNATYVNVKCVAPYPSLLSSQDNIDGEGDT

Molecule: HGF (from UniProt P14210 32-728) (ligand)
- receptor degradation, cell lines expressing wild-type MET such as A549 and U87MG, 1 nM HGF [1]: 80%
- receptor degradation, H596 cells, 1 nM HGF for 24 hrs [2]: 30%

B1: Ab238C (antibody, human IgG1, V domains shown)
VH: QVTLKESGPGILQPSQTLSLTCTFSGFSLSTYGMGVAWIRQPSGKDLEWLANIWWDDVNYSNPSLKNRLTISKDTSNNQVFLQITNVDTAETATYYCARIGTSHIVDAWGQGASVTVSA
VL: DIRMTQSPASLSASLGETVNIECLASEDIYSDLAWYQQKPGKSPQLLIYNANTLQNGVPSVFSGSGSGTQYSLKINNLHSEDVATYFCQQYNNYPPTFGGGTKLEIKR
- maximal percent induction of MET degradation in SNU-5 cells [1]: 39%
- percent inhibition of MET phosphorylation in SNU-5 cells [1]: 19%

B2: Ab238 (antibody, rat IgG2a, V domains shown)
VH: QVTLKESGPGILQPSQTLSLTCTFSGFSLSTYGMGVAWIRQPSGKDLEWLANIWWDDVNYSNPSLKNRLTISKDTSNNQVFLQITNVDTAETATYYCARIGTSHIVDAWGQGASVTVSA
VL: DIRMTQSPASLSASLGETVNIECLASEDIYSDLAWYQQKPGKSPQLLIYNANTLQNGVPSVFSGSGSGTQYSLKINNLHSEDVATYFCQQYNNYPPTFGGGTKLEIKR
notes: Rat IgG2a, kappa
- binding result (dog MET on MDCK cells): no binding
- binding result (mouse MET on MS1 cells): no binding
- binding result (hMET R331K/L337P): no binding
- binding result [3]: no binding
- binding result (hMET Q328H/R331K/S336N): no binding
- binding result (hMET R331K/S336N): no binding
- binding result (murine MET-ECD): no binding

B3: Ab238C-IgG2 (antibody, V domains shown)
VH: QVTLKESGPGILQPSQTLSLTCTFSGFSLSTYGMGVAWIRQPSGKDLEWLANIWWDDVNYSNPSLKNRLTISKDTSNNQVFLQITNVDTAETATYYCARIGTSHIVDAWGQGASVTVSA
VL: DIRMTQSPASLSASLGETVNIECLASEDIYSDLAWYQQKPGKSPQLLIYNANTLQNGVPSVFSGSGSGTQYSLKINNLHSEDVATYFCQQYNNYPPTFGGGTKLEIKR
- maximal percent induction of MET degradation in SNU-5 cells [1]: 35%
- percent inhibition of MET phosphorylation in SNU-5 cells [1]: 24%

B4: Ab235C (antibody, human IgG1, V domains shown)
VH: QVQLQQSGAELMKPGASVKISCKATGYTFSNYWIEWVKQRPGHGLEWIGEILPGSDYTKYNEKFKGKATFTADTSSNTAYMQLSSLTSEDSAVYYCARPSTIPPDCWGQGTTLTVSA
VL: QIVLTQSPAIMSTSPGEKVTMTCSASSSVNYMFWYQQKAGSSPRLLIYDTFNLASGVPVRFSGSGSGTSYSLTISRMEAEDAATYYCQQWSIYPYTFGGGTKLEIKR
- maximal percent induction of MET degradation in SNU-5 cells [1]: 6%
- percent inhibition of MET phosphorylation in SNU-5 cells [1]: 10%

B5: Ab236 (antibody, mouse IgG1, V domains shown)
VH: QAQLQQSGAELMKPGASVKISCKATGYIFSSYWIEWVKQRPGHGLEWIGEILPGSDFIKYSEKFKGKATFTADTSSNTAYMQLSNLTSEDSAVYYCARPSTVPPDCWGQGTTLTVSA
VL: QIVLTQSPAIMSASPGEKVTMTCSASSSVSYMFWYQQKPGSSPRLLIYDTSDLASGVPVRFSGSGSGTSYSLTISRMEAEDAATYYCQQWSNYPYTFGGGTKLEIKR
notes: Mouse IgG1, kappa
- binding result (dog MET on MDCK cells): no binding
- binding result (mouse MET on MS1 cells): no binding
- binding result (murine MET-ECD): no binding

B6: Ab236C (antibody, human IgG1, V domains shown)
VH: QAQLQQSGAELMKPGASVKISCKATGYIFSSYWIEWVKQRPGHGLEWIGEILPGSDFIKYSEKFKGKATFTADTSSNTAYMQLSNLTSEDSAVYYCARPSTVPPDCWGQGTTLTVSA
VL: QIVLTQSPAIMSASPGEKVTMTCSASSSVSYMFWYQQKPGSSPRLLIYDTSDLASGVPVRFSGSGSGTSYSLTISRMEAEDAATYYCQQWSNYPYTFGGGTKLEIKR
- maximal percent induction of MET degradation in SNU-5 cells [1]: 19%
- percent inhibition of MET phosphorylation in SNU-5 cells [1]: 17%

B7: Ab235C-IgG2 (antibody, V domains shown)
VH: QVQLQQSGAELMKPGASVKISCKATGYTFSNYWIEWVKQRPGHGLEWIGEILPGSDYTKYNEKFKGKATFTADTSSNTAYMQLSSLTSEDSAVYYCARPSTIPPDCWGQGTTLTVSA
VL: QIVLTQSPAIMSTSPGEKVTMTCSASSSVNYMFWYQQKAGSSPRLLIYDTFNLASGVPVRFSGSGSGTSYSLTISRMEAEDAATYYCQQWSIYPYTFGGGTKLEIKR
- maximal percent induction of MET degradation in SNU-5 cells [1]: 64%
- percent inhibition of MET phosphorylation in SNU-5 cells [1]: 64%

B8: Ab235 (antibody, mouse IgG1, V domains shown)
VH: QVQLQQSGAELMKPGASVKISCKATGYTFSNYWIEWVKQRPGHGLEWIGEILPGSDYTKYNEKFKGKATFTADTSSNTAYMQLSSLTSEDSAVYYCARPSTIPPDCWGQGTTLTVSA
VL: QIVLTQSPAIMSTSPGEKVTMTCSASSSVNYMFWYQQKAGSSPRLLIYDTFNLASGVPVRFSGSGSGTSYSLTISRMEAEDAATYYCQQWSIYPYTFGGGTKLEIKR
notes: Mouse IgG1, kappa
- binding result (dog MET on MDCK cells): no binding
- binding result (mouse MET on MS1 cells): no binding
- binding result (murine MET-ECD): no binding

B9: Ab236C-IgG2 (antibody, V domains shown)
VH: QAQLQQSGAELMKPGASVKISCKATGYIFSSYWIEWVKQRPGHGLEWIGEILPGSDFIKYSEKFKGKATFTADTSSNTAYMQLSNLTSEDSAVYYCARPSTVPPDCWGQGTTLTVSA
VL: QIVLTQSPAIMSASPGEKVTMTCSASSSVSYMFWYQQKPGSSPRLLIYDTSDLASGVPVRFSGSGSGTSYSLTISRMEAEDAATYYCQQWSNYPYTFGGGTKLEIKR
- maximal percent induction of MET degradation in SNU-5 cells [1]: 69%
- percent inhibition of MET phosphorylation in SNU-5 cells [1]: 75%

B10: Ab237C-IgG2 (antibody, V domains shown)
VH: EVQLVESGGGLVQPGRSLKLSCAASGFTFSDSYMAWVRQAPTKGLEWVASISSDGGGTYYRDSVKGRFSISRDNAKSSLYLQMDSLRSEDTATYYCTTEGIYTTDYYPYCFNYWGHGVMVTVSA
VL: DIQMTQSPGSLSASLGETVTIECLASADIHSNLAWYQQKPGNSPQLLIYYGNNLNDGVPSRFSGSGSGTQYSLKINSLQSEDVSIYFCQQSYDSPPTFGAGTKLEIKR
- maximal percent induction of MET degradation in SNU-5 cells [1]: 81%
- percent inhibition of MET phosphorylation in SNU-5 cells [1]: 72%

B11: Ab237 (antibody, rat IgG2a, V domains shown)
VH: EVQLVESGGGLVQPGRSLKLSCAASGFTFSDSYMAWVRQAPTKGLEWVASISSDGGGTYYRDSVKGRFSISRDNAKSSLYLQMDSLRSEDTATYYCTTEGIYTTDYYPYCFNYWGHGVMVTVSA
VL: DIQMTQSPGSLSASLGETVTIECLASADIHSNLAWYQQKPGNSPQLLIYYGNNLNDGVPSRFSGSGSGTQYSLKINSLQSEDVSIYFCQQSYDSPPTFGAGTKLEIKR
notes: Rat IgG2a, kappa
- binding result (dog MET on MDCK cells): no binding
- binding result (mouse MET on MS1 cells): no binding
- binding result (hMET R331K/L337P): no binding
- binding result [3]: no binding
- binding result (hMET Q328H/R331K/S336N): no binding
- binding result (hMET R331K/S336N): no binding
- binding result (murine MET-ECD): no binding

B12: Ab239C (antibody, human IgG1, V domains shown)
VH: EVQLVESGGGLVQPGRSLKLSCAASGFSFTDCYMAWVRQAPTKGLEWVASISSDGGGTYYRDSVKGRFTISRDNARSSLYLEMDSLRSEDTATYYCTTERYYDGTYYGYWYFDFWGPGTMVTVSA
VL: GQFTLTQPKSVSGSLRSTITIPCVRSSGDIGDRYVSWYQQRLGRPPLNVIYAADQRPSEVSDRFSGSIDSSSNSASLTITDLQMDDEADYFCQSYDSNIDIVFGGGTKLEIKR
- maximal percent induction of MET degradation in SNU-5 cells [1]: 36%
- percent inhibition of MET phosphorylation in SNU-5 cells [1]: 33%

B13: Ab239C-IgG2 (antibody, V domains shown)
VH: EVQLVESGGGLVQPGRSLKLSCAASGFSFTDCYMAWVRQAPTKGLEWVASISSDGGGTYYRDSVKGRFTISRDNARSSLYLEMDSLRSEDTATYYCTTERYYDGTYYGYWYFDFWGPGTMVTVSA
VL: GQFTLTQPKSVSGSLRSTITIPCVRSSGDIGDRYVSWYQQRLGRPPLNVIYAADQRPSEVSDRFSGSIDSSSNSASLTITDLQMDDEADYFCQSYDSNIDIVFGGGTKLEIKR
- maximal percent induction of MET degradation in SNU-5 cells [1]: 75%
- percent inhibition of MET phosphorylation in SNU-5 cells [1]: 75%

B14: Ab239 (antibody, rat IgG2a, V domains shown)
VH: EVQLVESGGGLVQPGRSLKLSCAASGFSFTDCYMAWVRQAPTKGLEWVASISSDGGGTYYRDSVKGRFTISRDNARSSLYLEMDSLRSEDTATYYCTTERYYDGTYYGYWYFDFWGPGTMVTVSA
VL: GQFTLTQPKSVSGSLRSTITIPCVRSSGDIGDRYVSWYQQRLGRPPLNVIYAADQRPSEVSDRFSGSIDSSSNSASLTITDLQMDDEADYFCQSYDSNIDIVFGGGTKLEIKR
notes: Rat IgG2a, lambda
- binding result (dog MET on MDCK cells): no binding
- binding result (mouse MET on MS1 cells): no binding
- binding result (murine MET-ECD): no binding

— patent publication US20180057595A1 (CELLDEX THERAPEUTICS, published 2018)
